Here are results for 1 molecule from patent CN111690061A (EASTERN THEATER COMMAND DISEASE CONTROL AND PREVENTION …, dated 2020).

The assay concerns the target T1, 鼠疫耶尔森菌抗原F1 (重组F1蛋白) (Yersinia pestis, UniProt P26948 22-170).
T1 construct: also called F1抗原; 鼠疫抗原F1
As to the kind of experiment: immunological detection (免疫学检测).

T1 sequence (P26948 22-170 limits assumed): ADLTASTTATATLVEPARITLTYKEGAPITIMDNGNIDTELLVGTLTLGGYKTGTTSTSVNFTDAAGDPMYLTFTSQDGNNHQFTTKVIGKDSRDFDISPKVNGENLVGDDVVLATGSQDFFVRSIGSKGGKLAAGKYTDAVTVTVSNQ

B1: 人鼠嵌合单克隆抗体 hm YF202 (antibody, V domains shown)
VH: ESGPDLVKPSQSLSLTCTVTGYSITSGYSWHWIRQFPGNKLEWMGYIHYSGSTNYNPSLKSRISITRDTSKNQFFLQLNSVTTEDTATYYCARNYAMDYWGQGTLVTVS
VL: DIVMTQSPKFMSTSVGDRVSVTCKASQNVGTNVAWYQQKPGQSPKALIYSASYRYSGVPDRFTGSGSGTDFTLTISNVQSEDLAEYFCQQYNSYPYTFGGGTKLEIKR
notes: also called 抗F1的人鼠嵌合单克隆抗体
Turning to B1, the binding result was “binds”.
